Data: publication PMC10986000

Assays:
[1] = target: His-PrsA truncated mutant D3 (amino acids 1 to 146 and 251 to 320; PPIase domain deleted) (S. aureus HG001); assay: cross-linking; E. coli BL21(DE3) cells expressing His-PrsA, D3 or D4 treated with 1% formaldehyde, 5 min, room temperature, 0.1 M sodium phosphate pH 6.8; His-tagged proteins purified on Ni-NTA; SDS-PAGE after 37 °C or 95 °C, Coomassie, immunoblot, LC-MS/MS of bands
[2] = target: full-length His-tagged PrsA (amino acid 1 to 320) (S. aureus HG001); assay: as above
[3] = target: protein A (SpA) on the surface of S. aureus HG001 (S. aureus (endogenous in HG001)) (UniProt P02976); assay: flow cytometry on cells; about 10^5 CFU S. aureus HG001 (also HG001ΔprsA and HG001ΔprsA(pGHL-PrsA)) in 2% BSA-PBS incubated with mouse IgG at 37 °C for 30 min, then FITC-conjugated anti-mouse IgG at 4 °C for 30 min; percent bound relative to the unstained population
Chain of UniProt P02976 (P02976 37-485): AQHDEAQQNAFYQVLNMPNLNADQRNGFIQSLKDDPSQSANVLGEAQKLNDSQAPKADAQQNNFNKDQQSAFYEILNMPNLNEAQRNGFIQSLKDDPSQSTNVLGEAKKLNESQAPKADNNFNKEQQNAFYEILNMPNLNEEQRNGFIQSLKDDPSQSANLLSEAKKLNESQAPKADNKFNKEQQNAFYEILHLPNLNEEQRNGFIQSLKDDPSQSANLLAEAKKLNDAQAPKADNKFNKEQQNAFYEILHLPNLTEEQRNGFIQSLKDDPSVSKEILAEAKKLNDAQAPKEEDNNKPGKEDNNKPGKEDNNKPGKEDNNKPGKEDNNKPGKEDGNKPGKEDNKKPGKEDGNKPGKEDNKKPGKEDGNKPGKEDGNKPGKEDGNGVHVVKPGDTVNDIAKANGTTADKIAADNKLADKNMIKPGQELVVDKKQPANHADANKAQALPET

His-PrsA truncated mutant D3 (amino acids 1 to 146 and 251 to 320; PPIase domain deleted) (domain or fragment)
stoichiometry N [1]: 2

full-length His-tagged PrsA (amino acid 1 to 320) (natural protein)
stoichiometry N [2]: 2

mouse immunoglobulin IgG
percent of S. aureus binding to IgG [3]: 41.8%
